From US9528993B2, “Agents and methods related to screening for resistance to DR5 and reducing resistance to DR5 agonists” (The UAB Research Foundation, priority 2005, dated 2016) come the findings set out here.

In test [1] the test system is TRA-8-resistant tumor cells. The test is described as follows: ATPLITE assay of TRA-8-resistant tumor cells transfected with DDX3ΔCARD. It counts as cell-based. As to conditions: four lines, adenoviral vector, 500 ng/ml TRA-8 overnight. The method, then: Cytotoxicity analysis of tumor cell susceptibility to TRA-8, 2E12, and TRAIL-mediated apoptosis. Cells (1,000 cells per well) were seeded into 96-well plates in triplicate with eight concentrations (double serial dilutions from 1000 ng/ml) of TRA-8, 2E12, or TRAIL. Cell viability was determined after overnight culture using an ATPLITE™ assay according to the manufacturer's instructions (Packard Instruments, Meriden, Conn.). The results are presented as the precentage of viable cells in treated wells compared to medium control wells.
A general note: In ATP-based viability assays light output follows the ATP content of the culture.

The target of another test is T1, cIAP1 (Homo sapiens, UniProt Q13490).
T1 construct: endogenous in cells
T1 sequence (Q13490 whole entry): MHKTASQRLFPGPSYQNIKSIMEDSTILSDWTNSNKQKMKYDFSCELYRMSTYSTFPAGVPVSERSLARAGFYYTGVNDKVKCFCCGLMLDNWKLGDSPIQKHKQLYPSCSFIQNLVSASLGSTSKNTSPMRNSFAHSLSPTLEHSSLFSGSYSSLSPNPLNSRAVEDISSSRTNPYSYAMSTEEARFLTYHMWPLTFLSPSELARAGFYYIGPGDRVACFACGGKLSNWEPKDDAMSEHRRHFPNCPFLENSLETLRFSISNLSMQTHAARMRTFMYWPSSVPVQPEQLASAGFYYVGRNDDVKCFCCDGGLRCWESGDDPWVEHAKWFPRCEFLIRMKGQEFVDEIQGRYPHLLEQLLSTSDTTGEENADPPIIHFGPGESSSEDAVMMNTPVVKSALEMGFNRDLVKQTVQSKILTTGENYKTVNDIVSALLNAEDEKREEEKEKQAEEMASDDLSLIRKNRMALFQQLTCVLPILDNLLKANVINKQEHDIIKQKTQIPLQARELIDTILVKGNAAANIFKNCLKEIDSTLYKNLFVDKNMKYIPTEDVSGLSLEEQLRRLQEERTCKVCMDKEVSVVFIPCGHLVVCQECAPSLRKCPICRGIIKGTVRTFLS
Nature of the test: Co-immunoprecipitation of DDX3 mutant with cIAP1. Format: binding. As to the method: Anti-DDX3 or anti-TRAIL-R2 antibody was conjugated to Sepharose beads (Sigma). The composition of the TRAIL-R2 DISC was determined as follows. 5×10^6 cells (if not otherwise indicated) were treated with 500 ng/ml of TRA-8 for the indicated time at 37° C. and then lysed in immunoprecipitation-lysis buffer (20 mM Tris-HCl, pH 7.4, 150 mM NaCl, 0.2% NONIDET P40, and 10% glycerol and complete protease inhibitor cock-tail) or lysed without treatment (unstimulated condition). […] After immunoprecipitation, the beads were washed four times with lysis buffer. The beads were then washed five times with 10 mM Tris buffer and resuspended in loading buffer for SDS-PAGE and immunoblotting analyses.

B1: DDX3ΔCARD: dominant negative mutant DDX3 lacking aa 1-150 (CARD-truncated DDX3) (protein)
chain: FSGGNTGINFEKYDDIPVEATGNNCPPHIESFSDVEMGEIIMGNIELTRYTRPTPVQKHAIPIIKEKRDLMACAQTGSGKTAAFLLPILSQIYSDGPGEALRAMKENGRYGRRKQYPISLVLAPTRELAVQIYEEARKFSYRSRVRPCVVYGGADIGQQIRDLERGCHLLVATPGRLVDMMERGKIGLDFCKYLVLDEADRMLDMGFEPQIRRIVEQDTMPPKGVRHTMMFSATFPKEIQMLARDFLDEYIFLAVGRVGSTSENITQKVVWVEESDKRSFLLDLLNATGKDSLTLVFVETKKGADSLEDFLYHEGYACTSIHGDRSQRDREEALHQFRSGKSPILVATAVAARGLDISNVKHVINFDLPSDIEEYVHRIGRTGRVGNLGLATSFFNERNINITKDLLDLLVEAKQEVPSWLENMAYEHHYKGSSRGRSKSSRFSGGFGARDYRQSSGASSSSFSSSRASSSRSGGGGHGSSRGFGGGGYGGFYNSDGYGGNYNSQGVDWWGN
For B1, the “susceptibility to TRA-8-induced apoptosis” value in test [1] is “regained their susceptibility to TRA-8-induced apoptosis”. For the same molecule, the “interaction with cIAP1” value with cIAP1 is reported as “fails to interact with cIAP1”.
